Patent US20040175720A1 (NEW YORK UNIVERSITY, published 2004)

B1: NIF-1 (NRC Interacting Factor-1), full-length human, untagged (other)
chain: MEENEVESSSDAAPGPGRPEEPSESGLGVGTSEAVSADSSDAAAAPGQAEADDSGVGQSSDRGSRSQEEVSESSSSADPLPNSYLPDSSSVSHGPVAGVTGGPPALVHSSALPDPNMLVSDCTASSSDLGSAIDKIIESTIGPDLIQNCITVTSAEDGGAETTRYLILQGPDDGAPMTSPMSSSTLAHSLAAIEALADGPTSTSTCLEAQGGPSSPVQLPPASGAEEPDLQSLEAMMEVVVVQQFKCKMCQYRSSTKATLLRHMRERHFRPVAAAAAAAGKKGRLRKWSTSTKSQEEEGPEEEDDDDIVDAGAIDDLEEDSDYNPAEDEPRGRQLRLQRPTPSTPRPRRRPGRPRKLPRLEISDLPDGVEGEPLVSSQSGQSPPEPQDPEAPSSSGPGHLVAMGKVSRTPVEAGVSQSDAENAAPSCPDEHDTLPRRRGRPSRRFLGKKYRKYYYKSPKPLLRPFLCRICGSRFLSHEDLRFHVNSHEAGDPQLFKCLQCSYRSRRWSSLKEHMFNHVGSKPYKCDECSYTSVYRKDVIRHAAVHSRDRKKRPDPTPKLSSFPCPVCGRVYPMQKRLTQHMKTHSTEKPHMCDKCGKSFKKRYTFKMHLLTHIQAVANRRFKCEFCEFVCEDKKALLNHQLSHVSDKPFKCSFCPYRTFREDFLLSHVAVKHTGAKPFACEYCHFSTRHKKNLRLHVRCRHASSFEEWGRRHPEEPPSRRRPFFSLQQIEELKQQHSAAPGPPPSSPGPPEIPPEATTFQSSEAPSLLCSDTLGGATIIYQQGAEESTAMATQTALDLLLNMSAQRELGGTALQVAVVKSEDVEAGLASPGGQPSPEGATPQVVTLHVAEPGGGAAAESQLGPPDLPQITLAPGPFGGTGYSVITAPPMEEGTSAPGTPYSEEPAGEAAQAVVVSDTLKEAGTHYIMATDGTQLHHIELTADGSISFPSPDALASGAKWPLLQCGGLPRDGPEPPSPAKTHCVGDSQSSASSPPATSKALGLAVPPSPPSAATAASKKFSCKICAEAFPGRAEMESHKRAHAGPGAFKCPDCPFSARQWPEVRAHMAQHSSLRPHQCSQCSFASKNKKDLRRHMLTHTKEKPFACHLCGQRFNRNGHLKFHIQRLHSPDGRKSGTPTARAPTQTPTQTIILNSDDETLATLHTALQSSHGVLGPERLQQALSQEHIIVAQEQTVTNQEEAAYIQEITTADGQTVQHLVTSDNQVQYIISQDGVQHLLPQEYVVVPEGHHIQVQEGQITHIQYEQGAPFLQESQIQYVPVSPGQQLVTQAQLEAAAHSAVTAVADAAMAQAQGLFGTDETVPEHIQQLQHQGIEYDVITLADD
modifications: ^35S-L-methionine label in the in vitro binding assay
B2: B42-NIF-1 (full-length), B42 activation domain fusion expressed from pJG4-5 in yeast (other, not shown: large carriers)
chain: B1 chain
notes: also called NIF-1 expressed as a B42-fusion
B3: LexA-fusion of full-length cTRα (receptor, UniProt P0A7C2 1-202, looked up)
chain: MKALTARQQEVFDLIRDHISQTGMPPTRAEIAQRLGFRSPNAAEEHLKALARKGVIEIVSGASRGIRLLQEEEEGLPLVGRVAAGEPLLAQQHIEGHYQVDPSLFKPNADFLLRVSGMSMKDIGIMDGDLLAVHKTQDVRNGQVVVARIDDEVTVKRLKKQGNKVELLPENSEFKPIVVDLRQQSFTIEGLAVGVIRNGDWLMEQKPSTLDPLSEPEDTRWLDGKRKRKSSQCLVKSSMSGYIPSYLDKDEQCVVCGDKATGYHYRCITCEGCKGFFRRTIQKNLHPTYSCKYDGCCVIDKITRNQCQLCRFKKCISVGMAMDLVLDDSKRVAKRKLIEENRERRRKEEMIKSLQHRPSPSAEEWELIHVVTEAHRSTNAQGSHWKQKRKFLPEDIGQSPMASMPDGDKVDLEAFSEFTKIITPAITRVVDFAKKLPMFSELPCEDQIILLKGCCMEIMSLRAAVRYDPESETLTLSGEMAVKREQLKNGGLGVVSDAIFDLGKSLSAFNLDDTEVALLQAVLLMSSDRTGLICVDKIEKCQETYLLAFEHYINYRKHNIPHFWPKLLMKVTDLRMIGACHASRFLHMKVECPTELFPPLFLEVFEDQEV
notes: domain: LexA DBD;mature
B4: LexA-hPPARα LBD (LexA fusion of the ligand binding domain of hPPARα) (receptor, UniProt P0A7C2 1-202, looked up)
chain: MKALTARQQEVFDLIRDHISQTGMPPTRAEIAQRLGFRSPNAAEEHLKALARKGVIEIVSGASRGIRLLQEEEEGLPLVGRVAAGEPLLAQQHIEGHYQVDPSLFKPNADFLLRVSGMSMKDIGIMDGDLLAVHKTQDVRNGQVVVARIDDEVTVKRLKKQGNKVELLPENSEFKPIVVDLRQQSFTIEGLAVGVIRNGDWLSHNAIRFGRMPRSEKAKLKAEILTCEHDIEDSETADLKSLAKRIYEAYLKNFNMNKVKARVILSGKASNNPPFVIHDMETLCMAEKTLVAKLVANGIQNKEAEVRIFHCCQCTSVETVTELTEFAKAIPGFANLDLNDQVTLLKYGVYEAIFAMLSSVMNKDGMLVAYGNGFITREFLKSLRKPFCDIMEPKFDFAMKFNALELDDSDISLFVAAIICCGDRPGLLNVGHIEKMQEGIVHVLRLHLQSNHPDDIFLFPKLLQKMADLRQLVTEHAQLVQIIKKTESDAALHPLLQEIYRDMY
notes: domain: LexA DBD;domain: LBD
B5: LexA-hRARα LBD (LexA fusion of the ligand binding domain of hRARα) (receptor, UniProt P0A7C2 1-202, looked up)
chain: MKALTARQQEVFDLIRDHISQTGMPPTRAEIAQRLGFRSPNAAEEHLKALARKGVIEIVSGASRGIRLLQEEEEGLPLVGRVAAGEPLLAQQHIEGHYQVDPSLFKPNADFLLRVSGMSMKDIGIMDGDLLAVHKTQDVRNGQVVVARIDDEVTVKRLKKQGNKVELLPENSEFKPIVVDLRQQSFTIEGLAVGVIRNGDWLSKESVRNDRNKKKKEVPKPECSESYTLTPEVGELIEKVRKAHQETFPALCQLGKYTTNNSSEQRVSLDIDLWDKFSELSTKCIIKTVEFAKQLPGFTTLTIADQITLLKAACLDILILRICTRYTPEQDTMTFSDGLTLNRTQMHNAGFGPLTDLVFAFANQLLPLEMDDAETGLLSAICLICGDRQDLEQPDRVDMLQEPLLEALKVYVRKRRPSRPHMFPKMLMKITDLRSISAKGAERVITLKMEIPGSMPPLIQEMLENSEGLDTLSGQPGGGGRDGGGLAPPPGSCSPSLSPSSNRSSPATHSP
notes: domain: LexA DBD;domain: LBD

Experiments:
[1] = molecular target: Human NRC expressed from pEX-NRC in HeLa cells (human, UniProt Q14686 1-2063); test: cell-based or functional assay
[2] = molecular target: T1, LexA-NRC-b (LexA DBD fused to NRC amino acids 849-2063), bait of the two-hybrid screen (UniProt P0A7C2 1-202; Q14686 849-2063); test: yeast two-hybrid, LexA-NRC fusions against B42-NIF-1 constructs (FIG. 6A)
T1 construct: domain: LexA DBD;range 849-2063
Description: Cell. Biol. 20:5048-5063 (2000), which is hereby incorporated by reference in its entirety). The yeast strain EGY48 harboring the LacZ reporter pSH1 8-34 (Gyuris et al., “Cdi1, A Human G1 and S Phase Protein Phosphatase that Associates with Cdk2,” Cell 75:791-803 (1993), which is hereby incorporated by reference in its entirety), and pEG202ΔPL-NRC-b was transformed with the GH4C1 pJG4-5 cDNA library. Transformants were directly screened on X-gal SD-galactose-raffinose plates lacking trp, ura, his, and leu. Putative positive clones were further purified on trp⁻, ura⁻, his⁻, and leu⁻ SD-galactose-raffinose plates. The purified clones were plated on SD-dextrose/trp⁻, ura^{-,} his⁻ plates to repress the expression of cDNAs from pJG4-5. Galactose-inducible interactions were verified upon replica plating each clone on trp⁻, ura⁻, his⁻, leu⁻ X-gal SD-galactose-raffinose and trp⁻, ura⁻, his⁻ X-gal SD-dextrose plates. […] The putative cDNAs from positive clones were further verified against several different baits. The positive interactors were then sequenced and subjected to restriction digestion, size determination, and further analysis.
Various regions of NRC were expressed as LexA fusions in yeast (designated as rows “a-g” in FIG. 6A) and their interaction compared with full-length NIF-1, NIF-2, and various deletions of NIF-1 conditionally expressed from pJG4-5. […]

[3] = molecular target: B2; test: yeast two-hybrid, B42-NIF-1 (full-length) against LexA full-length cTRα
Protocol: (§1) To examine for this possibility, the interaction of B42-NIF-1 (full-length), conditionally expressed from pJG4-5, was studied with LexA fusions of nuclear receptor LBDs (cTRα, ERa, RXRα, GR, RARα, and PPARα) in yeast, as shown in FIG. 7. In addition, a LexA-fusion of full-length cTRα was also tested against B42-NIF-1 (full-length) and gave similar results as with the cTRα LBD. […] To document that the LexA-LBD fusions were expressed and responded to ligand in yeast, similar studies were carried out with B42-NRC.

[4] = molecular target: B2; test: yeast two-hybrid, B42-NIF-1 (full-length) against LexA-LBD, β-galactosidase
Protocol: as §1

Human NRC expressed from pEX-NRC in HeLa cells, sequence (Q14686 whole entry, the tested form may be a part): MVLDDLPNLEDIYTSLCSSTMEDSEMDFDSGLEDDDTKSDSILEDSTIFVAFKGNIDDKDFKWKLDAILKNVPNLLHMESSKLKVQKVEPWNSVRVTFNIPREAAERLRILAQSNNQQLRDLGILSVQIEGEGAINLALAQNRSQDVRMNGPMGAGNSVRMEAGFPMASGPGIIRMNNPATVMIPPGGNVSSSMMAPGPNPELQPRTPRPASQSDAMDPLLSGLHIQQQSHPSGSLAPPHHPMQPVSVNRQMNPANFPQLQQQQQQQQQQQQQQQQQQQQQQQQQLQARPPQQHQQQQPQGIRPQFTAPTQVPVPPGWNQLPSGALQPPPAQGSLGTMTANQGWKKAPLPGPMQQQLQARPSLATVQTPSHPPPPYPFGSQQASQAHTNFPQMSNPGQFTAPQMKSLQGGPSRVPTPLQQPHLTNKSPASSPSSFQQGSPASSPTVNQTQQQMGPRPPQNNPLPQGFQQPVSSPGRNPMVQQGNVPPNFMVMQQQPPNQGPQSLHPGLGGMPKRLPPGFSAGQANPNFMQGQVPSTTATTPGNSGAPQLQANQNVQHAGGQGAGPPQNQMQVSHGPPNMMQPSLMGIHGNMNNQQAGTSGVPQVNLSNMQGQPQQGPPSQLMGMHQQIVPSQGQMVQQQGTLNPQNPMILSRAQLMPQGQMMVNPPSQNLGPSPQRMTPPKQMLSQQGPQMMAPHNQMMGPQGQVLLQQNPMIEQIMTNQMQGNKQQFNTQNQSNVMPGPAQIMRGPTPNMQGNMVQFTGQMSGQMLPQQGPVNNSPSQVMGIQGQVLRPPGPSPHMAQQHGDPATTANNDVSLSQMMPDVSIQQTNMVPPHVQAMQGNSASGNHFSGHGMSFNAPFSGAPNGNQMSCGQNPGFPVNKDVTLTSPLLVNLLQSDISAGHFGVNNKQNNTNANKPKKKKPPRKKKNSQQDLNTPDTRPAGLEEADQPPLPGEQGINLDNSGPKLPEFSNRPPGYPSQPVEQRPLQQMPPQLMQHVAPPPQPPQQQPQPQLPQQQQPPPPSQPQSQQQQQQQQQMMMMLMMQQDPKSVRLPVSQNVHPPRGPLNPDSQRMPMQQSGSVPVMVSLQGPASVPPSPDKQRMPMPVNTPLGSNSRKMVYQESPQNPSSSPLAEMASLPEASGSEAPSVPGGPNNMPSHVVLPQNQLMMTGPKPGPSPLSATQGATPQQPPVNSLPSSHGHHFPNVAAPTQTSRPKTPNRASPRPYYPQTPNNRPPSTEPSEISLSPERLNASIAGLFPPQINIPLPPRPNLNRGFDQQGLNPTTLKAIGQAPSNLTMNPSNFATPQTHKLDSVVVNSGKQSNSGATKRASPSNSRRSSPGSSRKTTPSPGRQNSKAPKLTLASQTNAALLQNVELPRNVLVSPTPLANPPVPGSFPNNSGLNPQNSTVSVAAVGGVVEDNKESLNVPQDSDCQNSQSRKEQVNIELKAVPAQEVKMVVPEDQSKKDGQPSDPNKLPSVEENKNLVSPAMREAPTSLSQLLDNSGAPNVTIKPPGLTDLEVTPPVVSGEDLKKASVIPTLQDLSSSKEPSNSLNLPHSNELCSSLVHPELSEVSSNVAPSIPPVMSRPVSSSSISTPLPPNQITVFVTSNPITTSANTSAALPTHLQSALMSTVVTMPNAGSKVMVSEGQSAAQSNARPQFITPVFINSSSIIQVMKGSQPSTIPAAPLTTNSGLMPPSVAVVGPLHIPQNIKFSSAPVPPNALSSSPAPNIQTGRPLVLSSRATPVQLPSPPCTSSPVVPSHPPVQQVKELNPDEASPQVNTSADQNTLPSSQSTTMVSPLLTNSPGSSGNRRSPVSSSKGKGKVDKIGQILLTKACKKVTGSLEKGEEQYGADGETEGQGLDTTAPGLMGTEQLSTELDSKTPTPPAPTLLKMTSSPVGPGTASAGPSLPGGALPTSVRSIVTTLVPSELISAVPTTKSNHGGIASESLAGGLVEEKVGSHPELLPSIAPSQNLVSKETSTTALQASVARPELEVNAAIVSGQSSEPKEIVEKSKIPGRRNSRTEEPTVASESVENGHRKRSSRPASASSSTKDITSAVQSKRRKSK

In the case of B1, the “activity of the -73 collagenase-CAT reporter gene in HeLa cells (fold increase)” value [1] is reported as 12 fold.

B2: binds [2].

B3: no binding [3].

B4: no binding [4].

B5: no binding [4].
